What was measured:
[1] = biological target: DgcR wild type, BeF3- modified (pseudo-phosphorylated, activated) (Leptospira biflexa); assay: SEC-MALS; in-line multi-angle light scattering and refractive index; 100 µL loaded at 0.5 to 10 mg/mL with various ligands; 20 mM Tris pH 8.0, 500 mM NaCl (or 20 mM NaCl), 5 mM MgCl2, 1 mM DTT; substrate analogue, product or lower salt did not change the quaternary state
DgcR = biological target: T1, DgcR (Leptospira biflexa, UniProt B0SUI1); assay: crystal structure at […] Å (DgcR_inh); product-inhibition Ki from progress curves (oIEC), about […] for BeF3-activated and about […] for native enzyme; format: biochemical
T1 construct: gene LEPBI_p0053; full-length (298 residues), dimer
T1 sequence (B0SUI1 1-298): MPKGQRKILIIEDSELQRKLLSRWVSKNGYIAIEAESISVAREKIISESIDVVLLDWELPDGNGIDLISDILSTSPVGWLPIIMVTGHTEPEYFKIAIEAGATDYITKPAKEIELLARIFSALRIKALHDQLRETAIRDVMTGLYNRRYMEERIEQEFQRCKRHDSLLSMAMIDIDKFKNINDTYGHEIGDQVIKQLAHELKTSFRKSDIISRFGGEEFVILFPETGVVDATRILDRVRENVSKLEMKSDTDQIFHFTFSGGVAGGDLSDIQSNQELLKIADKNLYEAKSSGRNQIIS

[2] = biological target: DgcR (LEPBI_RS18680, diguanylate cyclase controlled by Rec) from Leptospira biflexa, wild type, native (Leptospira biflexa); assay: SEC-MALS; in-line multi-angle light scattering and refractive index; 100 µL loaded at 0.5 to 10 mg/mL with various ligands; 20 mM Tris pH 8.0, 500 mM NaCl (or 20 mM NaCl), 5 mM MgCl2, 1 mM DTT; substrate analogue, product or lower salt did not change the quaternary state

## DgcR wild type, BeF3- modified (pseudo-phosphorylated, activated) (enzyme)
[1]
  stoichiometry N: 2

## Nc1nc2c(ncn2[C@@H]2O[C@@H]3CO[P@](=O)(O)O[C@H]4[C@@H](O)[C@H](n5cnc6c(=O)[nH]c(N)nc65)O[C@@H]4CO[P@](=O)(O)O[C@H]3[C@H]2O)c(=O)[nH]1 [c-di-GMP]
DgcR
  Ki: ~150 nM

## DgcR (LEPBI_RS18680, diguanylate cyclase controlled by Rec) from Leptospira biflexa, wild type, native (enzyme)
[2]
  stoichiometry N: 2

From publication PMC8041772, “Activation mechanism of a small prototypic Rec-GGDEF diguanylate cyclase” (Nature Communications, 2021)
